According to patent US12065471B2, “B*44 restricted peptides for use in immunotherapy against cancers and related methods” (Immatics Biotechnologies GmbH, priority 2018, dated 2024):

Target: HLA-B*44:05 (Homo sapiens, UniProt P01889, A223V/A65T/A93T/A95T/D201E/D98Y/E176V/E187L/E204Q/E69K/G107R/H137Y/K202T/L105A/L119I/N104T/N87E/Q56L/Q94N/R106L/R155S/R180D/S101N/S121R/S35A/S48T/T118I/V36M/W191S/Y91S)
Assay: MHC binding assay (UV-ligand exchange, β2m ELISA, peptide exchange yield)
Settings: binding to HLA-B*44:05
How it was run: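 Binding is read as exchange yield, i.e. stabilized complex remaining after UV cleavage of a photolabile ligand in the presence of the candidate peptide. Streptavidin-captured monomers (100-fold dilution) are probed with HRP-anti-β2m, 1h at 37° C, TMB, A450. Standard curve: HLA-A*02:01/MLA-001 monomers at 15-500 ng/ml.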

Row | Substance | Peptide exchange (MHC class I binding score, peptide exchange yield)
1 | 245 (MEFQGPMPAGM; listed as Homo sapiens) [compound 245] | +++ (>50 = +++)
2 | 249 (YEMAIYKKY; listed as Homo sapiens) [compound 249] | ++++ (>75% = ++++)
3 | 250 (AELDHLASL; listed as Homo sapiens) [compound 250] | +++ (>50 = +++)
4 | 251 (DESADSEPHKY; listed as Homo sapiens) [compound 251] | + (>10% = +)
5 | 252 (EEFIGKIGI; listed as Homo sapiens) [compound 252] | ++ (>20% = ++)
6 | 254 (QEVAGYVLI; listed as Homo sapiens) [compound 254] | +++ (>50 = +++)
7 | 258 (IEVSSPITL; listed as Homo sapiens) [compound 258] | ++++ (>75% = ++++)
8 | 260 (VELMFPLLL; listed as Homo sapiens) [compound 260] | +++ (>50 = +++)
9 | 262 (YENILNAI; listed as Homo sapiens) [compound 262] | ++ (>20% = ++)
10 | 264 (RELIKAIGL; listed as Homo sapiens) [compound 264] | +++ (>50 = +++)
11 | 265 (EDNLIHKF; listed as Homo sapiens) [compound 265] | ++ (>20% = ++)
12 | 266 (EEEDRDGHTW; listed as Homo sapiens) [compound 266] | +++ (>50 = +++)
13 | 267 (VELEVPQL; listed as Homo sapiens) [compound 267] | ++ (>20% = ++)
14 | 269 (SEDLAVHL; listed as Homo sapiens) [compound 269] | ++++ (>75% = ++++)
15 | 277 (VEFPATRSL; listed as Homo sapiens) [compound 277] | +++ (>50 = +++)
16 | 281 (HEIPQESL; listed as Homo sapiens) [compound 281] | + (>10% = +)
17 | 282 (KEFGIGDLVW; listed as Homo sapiens) [compound 282] | ++++ (>75% = ++++)
18 | 284 (SQYPHTHTF; listed as Homo sapiens) [compound 284] | +++ (>50 = +++)
19 | 286 (DELSVGRY; listed as Homo sapiens) [compound 286] | ++ (>20% = ++)
20 | 288 (TEHFLKKFF; listed as Homo sapiens) [compound 288] | +++ (>50 = +++)
21 | 291 (DEQLLLRF; listed as Homo sapiens) [compound 291] | ++ (>20% = ++)
22 | 292 (HELALRQTV; listed as Homo sapiens) [compound 292] | ++++ (>75% = ++++)
23 | 293 (QEDEQLLLRF; listed as Homo sapiens) [compound 293] | +++ (>50 = +++)
24 | 295 (QELEQEVISL; listed as Homo sapiens) [compound 295] | +++ (>50 = +++)
25 | 296 (AETIFIVRL; listed as Homo sapiens) [compound 296] | ++ (>20% = ++)
26 | 305 (AEKNRRDAETW; listed as Homo sapiens) [compound 305] | ++++ (>75% = ++++)
27 | 306 (RRHPSFKRF; listed as Homo sapiens) [compound 306] | + (>10% = +)
28 | 308 (EEPKIDFRVY; listed as Homo sapiens) [compound 308] | +++ (>50 = +++)
29 | 311 (REKDLPNYNW; listed as Homo sapiens) [compound 311] | ++++ (>75% = ++++)
30 | 312 (KEWEREKAVSL; listed as Homo sapiens) [compound 312] | +++ (>50 = +++)

More lines, now with the values ahead:

Row | Peptide exchange (MHC class I binding score, peptide exchange yield) | Substance
31 | +++ (>50 = +++) | 244 (VESSQAFTW; listed as Homo sapiens) [compound 244]
32 | +++ (>50 = +++) | 246 (HEHGLFNLY; listed as Homo sapiens) [compound 246]
33 | +++ (>50 = +++) | 247 (KESMLKTTL; listed as Homo sapiens) [compound 247]
34 | +++ (>50 = +++) | 248 (KESQLPTVMDF; listed as Homo sapiens) [compound 248]
35 | +++ (>50 = +++) | 253 (QEILHGAVRF; listed as Homo sapiens) [compound 253]
36 | + (>10% = +) | 255 (KQWEYNEKLAF; listed as Homo sapiens) [compound 255]
37 | ++ (>20% = ++) | 256 (RLLPGKVVW; listed as Homo sapiens) [compound 256]
38 | ++ (>20% = ++) | 259 (IEVSSPITLQAL; listed as Homo sapiens) [compound 259]
39 | +++ (>50 = +++) | 261 (QEWDPQKTEKY; listed as Homo sapiens) [compound 261]
40 | +++ (>50 = +++) | 263 (AEQLRGFNA; listed as Homo sapiens) [compound 263]
41 | + (>10% = +) | 268 (EDLAVHLY; listed as Homo sapiens) [compound 268]
42 | +++ (>50 = +++) | 271 (REDLVGPEV; listed as Homo sapiens) [compound 271]
43 | +++ (>50 = +++) | 272 (SEQNIQRANLF; listed as Homo sapiens) [compound 272]
44 | +++ (>50 = +++) | 273 (TEFELLHQV; listed as Homo sapiens) [compound 273]
45 | ++ (>20% = ++) | 274 (DEIDKLTGY; listed as Homo sapiens) [compound 274]
46 | +++ (>50 = +++) | 275 (GEQPPEGQW; listed as Homo sapiens) [compound 275]
47 | ++ (>20% = ++) | 276 (SEYQDGKEF; listed as Homo sapiens) [compound 276]
48 | + (>10% = +) | 278 (DQVTVFLHF; listed as Homo sapiens) [compound 278]
49 | +++ (>50 = +++) | 279 (GEPVTQPGSLL; listed as Homo sapiens) [compound 279]

Row | Peptide exchange (MHC class I binding score, peptide exchange yield) | Substance
50 | ++ (>20% = ++) | 280 (AAEPLVGQRW; listed as Homo sapiens) [compound 280]
51 | ++ (>20% = ++) | 283 (VEEEISRHY; listed as Homo sapiens) [compound 283]
52 | +++ (>50 = +++) | 285 (AEHPDFSPCSF; listed as Homo sapiens) [compound 285]
53 | ++++ (>75% = ++++) | 287 (REVSVVDIL; listed as Homo sapiens) [compound 287]
54 | +++ (>50 = +++) | 290 (AECILSKRL; listed as Homo sapiens) [compound 290]
55 | ++++ (>75% = ++++) | 294 (EEWEWIQKL; listed as Homo sapiens) [compound 294]
56 | ++ (>20% = ++) | 297 (DEYLIPQQGFF; listed as Homo sapiens) [compound 297]
57 | +++ (>50 = +++) | 298 (KEVASNSEL; listed as Homo sapiens) [compound 298]
58 | +++ (>50 = +++) | 299 (AEVQIARKL; listed as Homo sapiens) [compound 299]
59 | ++ (>20% = ++) | 300 (KQTEATMTF; listed as Homo sapiens) [compound 300]
60 | ++++ (>75% = ++++) | 301 (AERIMFSDL; listed as Homo sapiens) [compound 301]
61 | ++ (>20% = ++) | 302 (EGEDAHLTQY; listed as Homo sapiens) [compound 302]
62 | ++ (>20% = ++) | 303 (GEDAHLTQY; listed as Homo sapiens) [compound 303]
63 | ++++ (>75% = ++++) | 304 (RELGFTEATGW; listed as Homo sapiens) [compound 304]
64 | ++++ (>75% = ++++) | 307 (YEQLLKVVTW; listed as Homo sapiens) [compound 307]
65 | ++++ (>75% = ++++) | 309 (SDDLRNVTW; listed as Homo sapiens) [compound 309]
66 | +++ (>50 = +++) | 310 (FELECPVKY; listed as Homo sapiens) [compound 310]
67 | +++ (>50 = +++) | 313 (EEINQGGRKY; listed as Homo sapiens) [compound 313]
